# According to publication PMC2113761:
# Molecular target: FITC-labeled porcine brain tubulin (porcine) (UniProt P02550)
# Test: co-sedimentation
substance,measurement,value
FITC-labeled porcine brain tubulin (from UniProt P02550 1-451) (complex),"fluorescence intensity (B/A) of the precipitate, labeled tubulin alone (6:0)",27.5
